The source of these data is article doi:10.1101/2024.05.01.590489 (bioRxiv, 2024).

The labels stand for the following.
B1: mAb2-1 (antibody, V domains shown)
VH: EVQLLESGGGLVQPGKSLRLSCAASGFSFSNYAMSWVRQAPGKGLEWVSGISGSGGSTNYAESVRGRFTISRDNSKNTLYLEMNSLRVEDTAVYYCAKGMSYYDRSGYFWAKYHYGMDVWGQGITVTVSS
VL: not shown
B2: mAb1-2 (antibody, V domains shown)
VH: EVQLVESGGGLVQPGGSLRLSCAASGFIFSNYWMSWVRQAPGKGPEWVANIKQDGSANHYVDSVKGRFTISRDNAKNSLYLQMNSLRAEDTAVYYCAREAYQDWNYDYWGQGTLVTVSS
VL: DIQMTQSPSSLSASVGDRVTVTCRASEFISRYLNWYQQKPGKAPKVLIYAASSLQSGVPSRFSGSGSGTDFTLTISSLQPEDFATYYCQQSYSTPYTFGQGTKLEIK
B3: mAb1-4 (antibody, V domains shown)
VH: QVQVVESGAEVKKPGASVKVSCKASGYAFTTYYMHWVRQAPGQGLEWMGLINPSGDSITYAQRFQGRVTMTKDTSTSTVYMELSSLRSEDTAIYYCARDPNVAFYYGSGNYYKDNAMDVWGQGTTVTVSS
VL: not shown
B4: mAb2-2 (antibody, V domains shown)
VH: QVQLQESGPGLVKPSVTLSLTCTVSGDSISTYYWSWVRQPPGKGLEWIGYIYYSGNTNYNPSLKSRVTMSVDTSKNQFSLKLNSVTAADTAVYYCARTHHDYGDYRPSYYFDYWGQGTLVTVSS
VL: QSALTQPASVSGSPGQSITISCTGTSSDVGAYDYVSWYQQHPGKAPKLMIYDVSNRPSSGVSNRFSGSKSGNTASLTISGLQAEDEADYYCSSYTSSSTVILGGGTKLTVL
B5: mAb1-5 (antibody, V domains shown)
VH: EVQLVESGGGLVKPGGSLRLSCAASGFMFSSYSMNWVRQAPGKGLEWVSSISRSDSYIDYADSVKGRFTISRDTAMNVLYLQMDSLRAEDTGVYYCARTHVFNMFREVINDDYYGMDVWGQGTTVTVS
VL: ALTQPASVSGSPGQSITISCTGTSSDFGIYNSVSWYQHHPGKAPKLMIFGVSNRPSGVSNRFSGSKSGNTASLSISGLQAEDEADYYCSSFTARSTVVFGGGTKLTVL
B6: mAb1-3 (antibody, V domains shown)
VH: VQLVESGGGVVQPGRSLRLSCAASGFSFSSFVFHWVRQAPGKGLEWVAVISYDGSNKNYADSVKGRFTISRDNSKNTLFLQMNSLSADDTAVYYCARGAICSSTTCYLGDSYYFYGMDVWGQGTTVTVSS
VL: LTQPPSVSGAPGQRVTISCTGSRSNIGAGYDVHWYQQLPGTAPKLLIYGNSNRPSGVPDRFSGSKSGTSASLAITGLQTDDEADYYCQSYDSSLSGSVFGGGTKLTVL
B7: mAb1-7 (antibody, V domains shown)
VH: QVQLQESGPGLVKPSETLSLTCTVSGDSIRSYYWSWIRQPPGKGLEWIGHIYYSGSTNYKPSLKSRATILVDTSKNQFSLKLRSVTAADTAVYYCAREMTGVAGRGWDHWGQGTLVTVSS
VL: ALTQPPSASGTPGQRVTISCSGSSSNIGSNTVNWYQQLPGTAPKLLIFINNQRPSGVPDRFSGSKSGTSASLAISGLQSEDEADYYCTTWDGSLNGYVFGTRTEVTVL
B8: mAb1-1 (antibody, V domains shown)
VH: EVQLVESGGGLVKPGGSLRLSCAASGVPFSDAWMNWVRQAPGKGLEWVGRIKSKKDGGTADYAAPVKGRFSISRDDSKKMLYLHMNSLKTEDTAVYYCTTEPSGYCSNGLCYTGNYWGQGTLVTVSS
VL: QPVLTQSSSASASLGSSVKLTCTLSSGHITYIIAWHQQQPGKAPRYLMKLEDSGSYNKGSGVPDRFSGSSSGADRYLTISNLQFEDEADYYCETWDSYTRVFGGGTKLT
B9: Fab2-1 (Fab, V domains shown)
VH: EVQLLESGGGLVQPGKSLRLSCAASGFSFSNYAMSWVRQAPGKGLEWVSGISGSGGSTNYAESVRGRFTISRDNSKNTLYLEMNSLRVEDTAVYYCAKGMSYYDRSGYFWAKYHYGMDVWGQGITVTVSS
VL: not shown
B10: Fab3-3 (Fab, V domains shown)
VH: QVQLQESGPGLVKSSETLSLTCTVSGESISSSSHYWGWIRQPPGKGLEFLGNVYYLGSTYYNPSLESRVTILLDTSKNQFSLKVNSVTVADTAVYYCARHGAGSYSGLFFDYWGQGARVIVSS
VL: DIQMTQSPSFVSASVGDRVNITCRASQGINSWLAWYQQKPGKAPKLLIYSASSLQSGVPSRFSGSGSGTDFTLTISTLQPEDFATYYCQQANSFPYTFGQGTKVD
B11: Fab2-3 (Fab, V domains shown)
VH: VQLVESGGGLVKPGGSLRLSCATSGFTFSDYYMSWIRQAPGKGLEWVSYISSSGSTIYYADSVKGRFTMSRDNAKNSLFLRMNSLRAEDTAVYYCARDQITVDREVIRAHYYYGMDVWGQGTTVTVS
VL: DIQMTQSPSSVSASVGDRVTITCRASQGINSYLAWYQQKPGKAPKLLIYAASSLESGVPSRFSGSGSGTDFTLTISSLQPEDFATYYCQQANSFPLTFGGGTKVDI
B12: Fab2-6 (Fab, V domains shown)
VH: VQLLESGGALVQPGGSLRLSCAASGFSFSNYAMSWVRQAPGKGLEWVSTISASGGTTYFADSVKGHFTISRDNSKNTLYLQMDSLRAEDTAVYYCAKDPNYYDLSGYFLGGYYFDYWGQGTLVTVSS
VL: EIVLTQSPGTLSLSPGERATLSCRASQSVRSSYLAWYQQKPGQAPRLLIYGASSRATDIPDRFSGSGSGTDFTLTISRLEPEDFAVYYCQQYGTSPAFGGGTKV
B13: Fab2-4 (Fab, V domains shown)
VH: EVQLLESGGGLVHPGGSLRLSCAASGFPFSNFAMSWVRQAPGKGLEWVSTISGSSGSTYYADSVRGRFTISRDYSKNTVYLEMNSLRADDTAIYYCAKDRMITFGEVIVKHYDAFEIWGQGTRVAV
VL: DIQMTQSPSSLSASVGDRVTITCRASQTISTNVNWYQQKPGKAPKLLIYAASSLQSGVPSRFSGSGSGTDFTLTISSLQPEDFATFYCQQSYSAPLTFGEGTKV
B14: Fab1-6 (Fab, V domains shown)
VH: QVQLVESGAEVKQPGASVKVSCKASGYIFTSHNIHWVRKAPGQGLEWMGKINPSGGDANYAQKFQGRVVMTRDTSTNTVYVQLRSLRFEDTAVYYCARVHDFWSGYHRALDIWGQGTMVIVSS
VL: VLTQPPSASGTPGQTVTISCSGSSSNVGSHSVNWYQHLPGTAPKLLIYSNHRRPSGVPDRFSGSKSDTSASLAISGIQSEDEADYYCATWDGRLNVLFGGGTKLTVL
B15: Fab1-4 (Fab, V domains shown)
VH: QVQVVESGAEVKKPGASVKVSCKASGYAFTTYYMHWVRQAPGQGLEWMGLINPSGDSITYAQRFQGRVTMTKDTSTSTVYMELSSLRSEDTAIYYCARDPNVAFYYGSGNYYKDNAMDVWGQGTTVTVSS
VL: not shown
B16: Fab3-4 (Fab, V domains shown)
VH: AVESGGGLVKPGGPLRLSCAASGFSLSDNYMTWIRQAPGKGLEWVSYISSSGSFINYADSVKGRFTISRDNAKNSLYLQMNSLRAEDTAVYYCARVLSSGGLTTSWRALWYFDVWGRGTLVTVS
VL: TVVTQEPSFSVSPGGTVTLTCGLTSGSVSTSYYPSWYQQTPGQTPRTLIYSTNIRSSGVPDRFSGSILGNKAALTITGAQADDECDYYCVLYMGSGIWVFGGGTKLTVL
B17: Fab2-7 (Fab, V domains shown)
VH: EVQLLESGGGLVQPGGSLRLSCAASGFTFSTYAMNWVRQAPGKGLEWVAGISASGGSAYYVDSVEGRFTISRDNSNNMLYLQMNSLRAEDTAVYYCAKAVYAITMVRGSITTNYYHYYAMDVWGQGTTVTV
VL: EIVLTQSPGTLSLSPGERATLSCRASQGVSSNYLAWYQQKPGQAPRLLIYDASNRATGIPDRFSGSGSGTDFTLTISRLEPEDFAVYYCQQYGSSPPLTFGGGTKVQI
B18: Fab1-3 (Fab, V domains shown)
VH: VQLVESGGGVVQPGRSLRLSCAASGFSFSSFVFHWVRQAPGKGLEWVAVISYDGSNKNYADSVKGRFTISRDNSKNTLFLQMNSLSADDTAVYYCARGAICSSTTCYLGDSYYFYGMDVWGQGTTVTVSS
VL: LTQPPSVSGAPGQRVTISCTGSRSNIGAGYDVHWYQQLPGTAPKLLIYGNSNRPSGVPDRFSGSKSGTSASLAITGLQTDDEADYYCQSYDSSLSGSVFGGGTKLTVL
B19: Fab1-7 (Fab, V domains shown)
VH: QVQLQESGPGLVKPSETLSLTCTVSGDSIRSYYWSWIRQPPGKGLEWIGHIYYSGSTNYKPSLKSRATILVDTSKNQFSLKLRSVTAADTAVYYCAREMTGVAGRGWDHWGQGTLVTVSS
VL: ALTQPPSASGTPGQRVTISCSGSSSNIGSNTVNWYQQLPGTAPKLLIFINNQRPSGVPDRFSGSKSGTSASLAISGLQSEDEADYYCTTWDGSLNGYVFGTRTEVTVL
B20: Fab2-5 (Fab, V domains shown)
VH: EVQLVESGGGLVKPGGSPRLSCAASGFNFGSYSMNWVRQAPGKGLEWVSSISSSSSYIYYADSVKGRFTISRDNAKHSLYLQVNSLRAEDTAVYYCARDPTTYGYNSAWDKKGWYFDLWGRGTLLTVS
VL: VLTQPPSVSAAPGQMVTISCSGSSSNIGNDYISWYQQLPGTAPKLLIYDNNERPSGIPDRFSGSKSGTSATLGITGVQTGDEADYYCGTWDSSLSAWVFGEGTKLTVV
B21: Fab1-1 (Fab, V domains shown)
VH: EVQLVESGGGLVKPGGSLRLSCAASGVPFSDAWMNWVRQAPGKGLEWVGRIKSKKDGGTADYAAPVKGRFSISRDDSKKMLYLHMNSLKTEDTAVYYCTTEPSGYCSNGLCYTGNYWGQGTLVTVSS
VL: QPVLTQSSSASASLGSSVKLTCTLSSGHITYIIAWHQQQPGKAPRYLMKLEDSGSYNKGSGVPDRFSGSSSGADRYLTISNLQFEDEADYYCETWDSYTRVFGGGTKLT

In one assay the target is T1, AAV9 capsid (adeno-associated virus serotype 9 (AAV9), UniProt Q6JC40). Nature of the assay: far-Western, overlay or dot blot.
As to B1, the binding result is recorded as “binds”. On the same count and under the same terms, in the case of B2 it was “binds”; in that of B3, “binds”; in that of B4, “binds”. Same read-out and setting: in the case of B5 it was “binds”; in that of B6, “binds”; in that of B7, “binds”. The same measure, in the same setting: as for B8, the entry is “binds”.

The target in a further assay is T1, AAV9 capsid. Nature of the assay: cryo-EM structure.
On to B9, for which the binding result is “binds”.

As to B10, the binding result is “binds”. Same read-out and setting: as for B11, the entry is “binds”; as for B12, “binds”; as for B13, “binds”. As for B14, the stoichiometry N – broadly, a count of units in the complex or per binding partner – was not above 24 Fabs per capsid. Consider B15, for which the binding result is “binds”. The same measure, in the same setting: as for B16, the entry is “binds”.

Consider B17, for which the “stoichiometry N” value is not above 60 Fabs per capsid.

Regarding B18, the binding result is “binds”. On the same count and under the same terms, as for B19, the entry is “binds”; as for B20, “binds”; as for B21, “binds”.
